We go through 6 molecules from US20260130973A1, “COMPOSITIONS AND METHODS FOR DEGRADATION OF LIPOFUSCIN CYCLORETINAL BY MSP1” (THE TEXAS A&M UNIVERSITY SYSTEM, priority 2022, published 2026).

Entries after “also recorded” stand apart in the source; their conditions may differ.

One series deals with ARPE-19 cells. Put plainly: ARPE-19 cytotoxicity of liposomal complexes, MTT assay. The note with it: similar concentrations as cycloretinal, 96-h period. The format is cell-based. The procedure: The liposomal complexes were prepared as follows. Cycloretinal (10 mg), β-Ionone (20 mg), and 2,4-Dimethylbenzaldehyde (20 mg) were dissolved separately in ethanol (1 mL). Glyoxal (5.80 mg), methylglyoxal (7.21 mg), and β-cyclocitral (15.2 mg) were dissolved separately in chloroform (1 mL). A liposome solution of cholesterol (112 mg), Tween 80 (504 mg), and L-α-phosphatidylcholine (730 mg) were dissolved in 16 mL of chloroform. Liposome solution (2 mL) was added to each of the compounds. The solvents were removed under vacuum and charged with nitrogen. Each of the flasks were then mixed with 5 mL of water and stirred at 60° C. for 1 h. Each solution was placed on ice and sonicated with a probe sonicator (15 seconds on/15 seconds off) for 5 min. The solutions were centrifuged at 11,000×g for 30 min and filtered through a 0.2 μm filter. Each sample (10 μL) was added to 1 mL ethanol and measured by absorption via UV-Vis spectroscopy. The extinction coefficients were 9970 M^−1cm^−1, 26343 M^−1cm^−1, and 13476 M^−1cm^−1 for cycloretinal, 2,4-dimethylbenzaldehyde, and β-ionone, respectively. […]
Cell viability was assessed with the MTT cell proliferation assay. […] The absorbance was subsequently evaluated at 570 nm utilizing a microplate reader (quant absorbance plate reader, BioTek Instruments Inc.) […]

Series [1] is described as follows: Activity of MsP1 at different pH (cycloretinal degradation). The format is biochemical. As for the experimental part:
To determine the optimum pH for MsP1 activity, cycloretinal degradation reactions were carried out in PBS buffer as described herein but at different pH values by adjusting pH with either NaOH or HCl (i.e. a pH of 5.5, 6.4, 7.0, 7.5). Sample OD values were monitored using a UV-Vis spectrophotometer (Genesys™2, ThermoSpectronic) at 430 nm over a period of 300 seconds.

Substrate in series [2]: CC(C=CC1=C(C)CCCC1(C)C)=CC=CC1=CC=C(C=O)C(C)(C=CC=C(C)C=CC2=C(C)CCCC2(C)C)C1
Put plainly: MsP1 H365F variant-catalyzed degradation of cycloretinal, steady-state enzyme kinetics. The format is biochemical, Marasmius scorodonius. The note with it: other: H365F, PBS pH 7.4, H2O2, 430 nm, mean and 95% confidence limits. As for the experimental part: (§1) The gene encoding Marasmius scorodonius extracellular peroxidase MsP1 (UniProtKB, B0BK71) and its R388L variant were chemically synthesized with codon optimization for E. coli, having an optimized sequence length 1539 bp cloned into pUC57 vector with a GC content of 54.67% (SEQ ID NO: 5).
(§2) MsP1 mutants were generated using the Agilent mutagenesis kit (Quick change II site directed mutagenesis kit, catalog number: 200523) and primers of Table 1. Primer annealing was carried out at 55° C. for 60 seconds followed by a polymerization step carried out at 68° C. for 5 minutes. A total of 16 cycles were carried out. After PCR amplification DpnI digestion was performed by adding 1.5 μL DpnI to PCR amplification mixture incubating for 4 hours at 37° C. The resulting mixture was cleaned using resin provided in the kit and transformed into XL1 Blue electrocompetent cells. The resulting clones were screened and sequenced to confirm mutagenesis.
(§3) Active site residues were selected based on multiple sequence alignment with homologous DyPs and protein modelling, His 365, Asp 228, and Arg 388 were identified as amino acids that are critical to MsP1 activity. […] This means that wtMsP1 has greater substrate affinity for cycloretinal, compared with D228A and R388L variants, and reaches half maximal velocity at lower substrate concentration. […] The greater affinity observed for the phenylalanine variant likely signifies that cycloretinal can dock with greater affinity in the active site since the iron porphyrin heme cofactor would no longer be covalently bound at residue 365. Therefore, the residues involved in MsP1 catalysis are D228, H365, and R388 (FIG. 10).

Substrate in series [3]: CC(C=CC1=C(C)CCCC1(C)C)=CC=CC1=CC=C(C=O)C(C)(C=CC=C(C)C=CC2=C(C)CCCC2(C)C)C1
Put plainly: MsP1 D228A variant-catalyzed degradation of cycloretinal, steady-state enzyme kinetics. The format is biochemical, Marasmius scorodonius. The note with it: other: D228A, PBS pH 7.4, H2O2, 430 nm, mean and 95% confidence limits. As for the experimental part:
as §1, §2, §3

Substrate in series [4]: CC(C=CC1=C(C)CCCC1(C)C)=CC=CC1=CC=C(C=O)C(C)(C=CC=C(C)C=CC2=C(C)CCCC2(C)C)C1
Put plainly: MsP1-catalyzed degradation of cycloretinal, steady-state enzyme kinetics (decrease in absorbance at 430 nm). The format is biochemical, Marasmius scorodonius. The note with it: other: wtMsP1, PBS pH 7.4, H2O2, 430 nm, mean and 95% confidence limits.
From the text: as §1

Substrate in series [5]: CC(C=CC1=C(C)CCCC1(C)C)=CC=CC1=CC=C(C=O)C(C)(C=CC=C(C)C=CC2=C(C)CCCC2(C)C)C1
Put plainly: MsP1 R388L variant-catalyzed degradation of cycloretinal, steady-state enzyme kinetics. The format is biochemical, Marasmius scorodonius. To be noted: other: R388L, PBS pH 7.4, H2O2, 430 nm, mean and 95% confidence limits. As for the experimental part:
as §1, §2, §3

As for `O=CC=O` [glyoxal], in the series on ARPE-19 cells, the “impact on cell viability / toxicity to ARPE-19 cells” value is reported as “no impact on cell viability; also recorded: do not exhibit toxicity”.

B1: MsP1: peroxidase enzyme from the organism Marasmius scorodonius, SEQ ID NO: 1; recombinant, N-terminal hexa-Histidine tag (protein, listed as Mycetinis scorodonius)
chain: MKLFSASVFAAIIASHYASATAHIRAPNVKPRRTNSLLTAPPQQPPLPSAQQAASASSSAGLNLTDIQGDILIGMKKNKELFFFFSITDAATFKAKLGSDILELITSTNQLLAVATQPITAVNVAFSSTGLKALGITDDLKDPVFEAGMLSNAVSDLSDPGTGNWVPGFVGTSVHGVFLLASDTIDNVNTELANIQTILNGSITEIHRLQGEARPGDQQGHEHFGFMDGISNPAVDGFTPPAEIRPGQALIPPGIMLLGEANDTFQNDRPPWAKDGSFLVFRQMQQRAPEFNKFLQDHALNMPNMTSEQGADLLGARIVGRWKSDAPIDLTPLVDDPVLAADNQRNNNFDFSDATNQTRCPFSAHIRKANPRGDLGGINKFPNQHIIRAGIPYGPEVTDAEKASNSSSTDPSLERGLAFVAYQSNIQNGFVFLQKNWVDNTNFFRPGTGVDPLIGTNSRNSGTDAPNTPRVVSGLDPNNATSTIEIGIDFVVSRGGEYFFSPSLSAIRTVLSV
modifications: MsP1 amino acid sequence
In the case of B1, the “optimal pH for MsP1 catalytic activity towards cycloretinal” value in series [1] (pH 5.5, 6.4, 7.0, 7.5 tested) turned out to be 5.5. Also, in series [1] (pH of 5.5), the “activity at lysosomal pH” value is given as “highly active”.

B2: Marasmius scorodonius peroxidase MsP1 variant H365F (parent SEQ ID NO: 1) (Mycetinis scorodonius; H365F) (protein)
chain: ASSSAGLNLTDIQGDILIGMKKNKELFFFFSITDAATFKAKLGSDILELITSTNQLLAVATQPITAVNVAFSSTGLKALGITDDLKDPVFEAGMLSNAVSDLSDPGTGNWVPGFVGTSVHGVFLLASDTIDNVNTELANIQTILNGSITEIHRLQGEARPGDQQGHEHFGFMDGISNPAVDGFTPPAEIRPGQALIPPGIMLLGEANDTFQNDRPPWAKDGSFLVFRQMQQRAPEFNKFLQDHALNMPNMTSEQGADLLGARIVGRWKSDAPIDLTPLVDDPVLAADNQRNNNFDFSDATNQTRCPFSAFIRKANPRGDLGGINKFPNQHIIRAGIPYGPEVTDAEKASNSSSTDPSLERGLAFVAYQSNIQNGFVFLQKNWVDNTNFFRPGTGVDPLIGTNSRNSGTDAPNTPRVVSGLDPNNATSTIEIGIDFVVSRGGEYFFSPSLSAIRTVLSV
notes: site-directed mutant
What is called Km is the substrate concentration at which the rate is half of its maximum. A word on the kcat: it is the number of substrate molecules converted per active site and unit of time at saturation. The term kcat/Km denotes the turnover number divided by the Michaelis constant. For the molecule B2, in series [2], the Km was found to be 906 ± 26 µM, the kcat was determined as 0.142 ± 0.0031 s⁻¹ and the kcat/Km is 156 ± 8 M⁻¹ s⁻¹.

B3: Marasmius scorodonius peroxidase MsP1 variant D228A (parent SEQ ID NO: 1) (Mycetinis scorodonius; D228A) (protein)
chain: ASSSAGLNLTDIQGDILIGMKKNKELFFFFSITDAATFKAKLGSDILELITSTNQLLAVATQPITAVNVAFSSTGLKALGITDDLKDPVFEAGMLSNAVSDLSDPGTGNWVPGFVGTSVHGVFLLASDTIDNVNTELANIQTILNGSITEIHRLQGEARPGDQQGHEHFGFMAGISNPAVDGFTPPAEIRPGQALIPPGIMLLGEANDTFQNDRPPWAKDGSFLVFRQMQQRAPEFNKFLQDHALNMPNMTSEQGADLLGARIVGRWKSDAPIDLTPLVDDPVLAADNQRNNNFDFSDATNQTRCPFSAHIRKANPRGDLGGINKFPNQHIIRAGIPYGPEVTDAEKASNSSSTDPSLERGLAFVAYQSNIQNGFVFLQKNWVDNTNFFRPGTGVDPLIGTNSRNSGTDAPNTPRVVSGLDPNNATSTIEIGIDFVVSRGGEYFFSPSLSAIRTVLSV
notes: site-directed mutant
For the molecule B3, in series [3], the Km worked out at 4230 ± 82 µM, the kcat was found to be 0.388 ± 0.0073 s⁻¹ and the kcat/Km turned out to be 91.6 ± 3.5 M⁻¹ s⁻¹.

B4: Marasmius scorodonius peroxidase MsP1, wild type (wtMsP1), SEQ ID NO: 1 (Mycetinis scorodonius) (protein)
chain: ASSSAGLNLTDIQGDILIGMKKNKELFFFFSITDAATFKAKLGSDILELITSTNQLLAVATQPITAVNVAFSSTGLKALGITDDLKDPVFEAGMLSNAVSDLSDPGTGNWVPGFVGTSVHGVFLLASDTIDNVNTELANIQTILNGSITEIHRLQGEARPGDQQGHEHFGFMDGISNPAVDGFTPPAEIRPGQALIPPGIMLLGEANDTFQNDRPPWAKDGSFLVFRQMQQRAPEFNKFLQDHALNMPNMTSEQGADLLGARIVGRWKSDAPIDLTPLVDDPVLAADNQRNNNFDFSDATNQTRCPFSAHIRKANPRGDLGGINKFPNQHIIRAGIPYGPEVTDAEKASNSSSTDPSLERGLAFVAYQSNIQNGFVFLQKNWVDNTNFFRPGTGVDPLIGTNSRNSGTDAPNTPRVVSGLDPNNATSTIEIGIDFVVSRGGEYFFSPSLSAIRTVLSV
notes: wild type
Take B4: in series [4], the Km came out at 845 ± 11 µM, the kcat came out at 0.229 ± 0.0024 s⁻¹ and the kcat/Km turned out to be 271 ± 6.2 M⁻¹ s⁻¹.

B5: Marasmius scorodonius peroxidase MsP1 variant R388L (parent SEQ ID NO: 1) (Mycetinis scorodonius; R388L) (protein)
chain: ASSSAGLNLTDIQGDILIGMKKNKELFFFFSITDAATFKAKLGSDILELITSTNQLLAVATQPITAVNVAFSSTGLKALGITDDLKDPVFEAGMLSNAVSDLSDPGTGNWVPGFVGTSVHGVFLLASDTIDNVNTELANIQTILNGSITEIHRLQGEARPGDQQGHEHFGFMDGISNPAVDGFTPPAEIRPGQALIPPGIMLLGEANDTFQNDRPPWAKDGSFLVFRQMQQRAPEFNKFLQDHALNMPNMTSEQGADLLGARIVGRWKSDAPIDLTPLVDDPVLAADNQRNNNFDFSDATNQTRCPFSAHIRKANPRGDLGGINKFPNQHIILAGIPYGPEVTDAEKASNSSSTDPSLERGLAFVAYQSNIQNGFVFLQKNWVDNTNFFRPGTGVDPLIGTNSRNSGTDAPNTPRVVSGLDPNNATSTIEIGIDFVVSRGGEYFFSPSLSAIRTVLSV
notes: R388L variant gene synthesized
Regarding B5, in series [5], the Km was determined as 1140 ± 11 µM, the kcat is 0.0218 ± 0.00018 s⁻¹ and the kcat/Km is 19.2 ± 0.3 M⁻¹ s⁻¹.
